# Measured values reported in the nanobody polyreactivity screen of Harvey et al. (2022).
# Test: yeast display, Sf9 membrane polyspecificity reagent, FACS + sequencing; frameworks hold sequencing errors
# Outline: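 A synthetic nanobody library was expressed on Saccharomyces cerevisiae BJ5465 by galactose induction for 36–48 hours. The library was stained for 1 hour at 4 °C with 10% biotinylated, detergent-solubilized Sf9 membrane reagent and enriched with streptavidin microbeads before FACS. Low and high (top ~1%) gates were set on anti-HA fluorescence for expression and streptavidin fluorescence for reagent binding, and each polyreactivity label reflects the gate of origin.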
row,Sequence,polyreactivity (PSR sort gate)
1,QVQLVESVGGLVQAGGSLRLSCSASGSIFWYNAMGWYRQAPGKERELVAAISRGGSTKYADSVKGRFTISRDNAKNTVYLQMNSLKPEDTAVYYCAARYYRSSQGWTYDYWGKGTQVTVSS,low polyreactivity
2,QVQLVESVGGLVQAGGSLRLSGAASGRTFSSYALGWYRQAPGKVRELVAGIRLSTGSTYYADSVKGRFTISRDNAKNTVYLQMNSLQPEDTAVYYCNARGWAYSGAKSYYWGQGTQVTLSS,high polyreactivity
3,QVQLVESVGGLVQAGGSLRLSSAASGLIFNEYVMGWYRQAPGKERELVAGISRIGGSTYYADSVKGRFTISRDNAKNTVYLQMKSLKQEDTAVYYCARPNLLSGDYWGQGTQVTVSS,high polyreactivity
4,QVQLVESVGGLVQAGGSLRLTCAASGIIFAWYVMGWYRQAPGKERELVAAITQSGGSTFYADSVKGRFTISRDNAKNTVYLQMNSLKPEDTAVYYCNTEDFVNVPEMDSWGQGTQVTVSS,low polyreactivity
5,QVQLVESVGGLVQAGGSLRLTCAASGRILGYYAMGWYRQAPWKERELVAAISRAGSTNYADSVKGRFTISRDNAKNTVNLQMNSLKPEHTAVYYCAARQYRRGYNYWGQGTQVTVSS,high polyreactivity
6,QVQLVESVGGLVQAGGTHRLSCSASGSTFFYYAMGWYRQAPGKERELVAAISSSGGRTYYADSVKGRFTISRDTAKNTVYLQMNSLKPEDTAVYYCAARDYRQSRYEYWGQGTEVTVSS,high polyreactivity
7,QVQLVESVGGLVQAGVSLRLRCAASGFIFWYYAMGWYRQATGKDRELVASISARDGSTYYADSVKGRFTISRYNAKNTVYLQMNSLKPEDTAVYYCNAVQRYPKYRMDYCGQGTQVTVSS,low polyreactivity
8,QVQLVESVRGLDQAGGSLRLSCAASGSIFDSNAMGSYRQATGKERELVAAITGSGTSTYYADSVKGRFTISRDNAKNTVYLQMNILKPEDTAVYYCARDSLQVFYTYGSDDYWGQGTQVTVSS,low polyreactivity
9,QVQLVESVVGLVQAGGILRLSCSASGSTLPWYAMGWYRQAPGKERELVAAISYRGGSTYYADSVKGRFTISRDNAKNTVYLQLNSLKPEDTAVYYCAARFYFQPLWYKGYYWGQGTQVTVSS,high polyreactivity
10,QVQLVESVVGLVQAGGSLRLSCAASGGTFSFNAIGWYRQAPGKETELVAAITQTGDGTYYADSVKGRFTISRDNAKNSVYLQMNIMKPEDTAVYYCNTDSIPFVPWFRFDYWGQGTQVTVSS,low polyreactivity
11,QVQLVESVVGLVQAGGSLRLSCAASGRTFRRYAMGWYRQAPGKERELVAAISRSGGSTYADSVKGRFTISRDNAKNTVYLQMNSLKPEDTAVYYCAAVTYSGSRFDYWGQGTQVTVSS,high polyreactivity
12,QVQLVESVVGLVQAGGSLRLSCAASVRTFVEYSMGWYRQAPGQERELVAAISSGGGSTYYADSVKGRFTISRDNAKNTVYLQMNSLKPEDTAVSYCATVGYRHRGWTSGYWGQGTQVTVSS,high polyreactivity
13,QVQLVESVVGLVQAGGSLRLSCASSGSTFGANAMGRYRQAPGKEREFLAAISRSGVRTYYADSVKGRFTISRDNAKKTVYLQMNSLKPEDTAVYYCAADGYWWTYTRYDYWGQGTQVTVSS,low polyreactivity
14,QVQLVESWGGLFQAGGSLRLRCAASGRKFYYYAMVFYIQAPGKERELVAAITGRGGRTYYADSVKGRFTISRDNAKNTVYLQINSLKPDDTAVYYCAVRAGSAGYPKYDYWGQGTQVTLSS,high polyreactivity
15,QVQLVESWGGLVQAGGRLRLSCAASGNTFWDNAMRWYRQAPGKERELVAAIRWSTVSTHYADSVKGRFTISRDNAKNTVYLQMNSLKPEDTAVYDCAATAYYYYRDKYYGYDYWGQGTHVTVSS,low polyreactivity
16,QVQLVESWGGLVQAGGSLRISCAASGFIIDGNAMGWYRQAPGKERELLAAISGDGGSYYADSVKGRFTISRDNAKNSVYLQRNSLKPEDTAVYDCAAEQTQLYSFGWDEYWGQGTQVTVSS,low polyreactivity
17,QVQLVESWGGLVQAGGSLRISCAASGRTFGSYVMGWYRQAPGKERELVAAISSRGTRTYYADSVKGRFTISRDNAKNTVYLQMNSLKPEDTAVYYCNAKYGQYPPRYEYWGQGTQVTVSS,high polyreactivity
18,QVQLVESWGGLVQAGGSLRISCAASGRTFVRNALGWYRHAPGKEREMVAGITRSGGSTYYADSVKGRFTISRDNAKNTVYLQMNSLKPEDTAVYYCATQYRYYNHFVTPFTRYGYWGQGTQLTVSS,high polyreactivity
19,QVQLVESWGGLVQAGGSLRLICAASRGTFRVYAMGWYRQAPVKERELVAAITWRGGRTYYADSVKGRFTISRDNAKNTVYLQMNSLKPEDTAVYYCAADRYGDLYDYWGQGTQVTVSS,high polyreactivity
20,QVQLVESWGGLVQAGGSLRLSCAASGFTFFYYDMGWYRQAPGKERQLVAAITWRGGRTYYADSVKGRFTISRDNAKNTVYLQMNSLKPEDTAVYYCNAYWGYAKVGQFDYWGQGTQVTVSS,high polyreactivity
21,QVQLVESWGGLVQAGGSLRLSCAASGFTFTSYAMGCYRQAPGKEREFVAGITKGGGNTYYSDSVKGRFTISRDNAKNTVYLHMNSLKPEDTEVYYCAADRSSFYLSHGTVDCYDYWGQATQVTVSS,low polyreactivity
22,QVQLVESWGGLVQAGGSLRLSCAASGIFYPMGWYTQAPGKERELVAAISSVGSTKYADSVKGRFTISRDNAKNTVYFQINSLKPEDTAVYYSNADVTRASSRYNSWGQGTQVTVSS,low polyreactivity

row,Sequence,polyreactivity (PSR sort gate)
1,QVQLVESWGGLVQAGGSLRLSCAASGITFSSNAMGWSRQAPGKERELVAAINSGDSTNYADSVKGRFTISRDNAKNTVYLQMNSLKPEDTAVYDCAKRYRRRFNYWGQGTQVTVSS,high polyreactivity
2,QVQLVESWGGLVQAGGSLRLSCAASGLIIYTYAMGWYRQAPGKERELVADINRSDGSTYYADSVKGRFTISRDNAKNTVYLQMNSLKPEDTAVYYCAVVGPYYSRFGGRYYYWGQGTQVTVSS,low polyreactivity
3,QVQLVESWGGLVQAGGSLRLSCAASGRIFGYYAMGWSRQAPGKERELVAVISSGGSTYADSVKGRFTISRDNAKNTVYLQMNSLKPEDTAFYYCAARNYWSSYRTYRSRYDYWGQGTQVTVSS,high polyreactivity
4,QVQLVESWGGLVQAGGSLRLSCAASGRIFKTYAMGWYRQAPGNEREFFAAITSSGGSTYYADSVKGRFTISRDHAKNTVYLQKNSLNPEDTAVYYCNAGSLHRRYYYEGDYWGQGTQVTVSS,high polyreactivity
5,QVQLVESWGGLVQAGGSLRLSCAASGRIFKYNAMGWYRQAPGKERELVAAISGGGSTNYADSVKGRFTISRDNAKNTVYLQMNSLKPEDTAVYYCAASDPFEASQYKYDYWGQGTQVTVSS,low polyreactivity
6,QVQLVESWGGLVQAGGSLRLSCAASGRIFWAYAMGWYRHAPGKERELVAGITFTGGRTYYADSVKGRFTISRDNAKNTVYLQMNSLKPEDTAVYYCAAAGLDVGRKDRDGYWGQGTQVTVSS,low polyreactivity
7,QVQLVESWGGLVQAGGSLRLSCAASGRTFGKYAMGWYRQAPGKERELVASITFSSGSTYYADSVKGRFTISRDNAKNTVYLQMNSLKPEDTAVYYCAKRGWGIYDYWGQGTQVTVSS,low polyreactivity
8,QVQLVESWGGLVQAGGSLRLSCAASGRTLGYNAMGWYRQAPGKERELVATISYNGGRTYYADSVKGRFTISRDNAKNTVYLQMNSLKPEDTAVYYCNTRYRWIRRSLFDYWGQGTQVTVSS,high polyreactivity
9,QVQLVESWGGLVQAGGSLRLSCAASGSTFDRYAMGWYRQAPGKERELVAAISGSAGRTYYADSVKGRFTISRENAKNTVYLQMNTLKPEDTAVYFCAAVQIVSGNYDYYWGQGTQVTVSS,low polyreactivity
10,QVQLVESWGGLVQAGGSLRLSCAASGSTFDYNAMGWYRQAPGKERELVAAITSTGGNTYYADSVKGRFTISRDNAKNTVYLQMISMKPEDTAVYYCNKDVARYPYGKFDYWGQGTQVTVSS,low polyreactivity
11,QVQLVESWGGLVQAGGSLRLSCAASGSTFGKYFMGWYRQAHGKERELVAAISLSGGSTYYADSVKGRFTISRDKAKNTVYLQMNSLKPEDTAVYYCATVGYGYDYWGQGNQVTVSS,high polyreactivity
12,QVQLVESWGGLVQAGGSLRLSCAASGSTFTTNAMGWYRQAPGKERELVATMSGGGSTYYADSVKGSFTISRDNAKHTVYLQTNSLKPEDTAVYYCAKPTYRFYWGDFDYWGQGTQVTLSS,low polyreactivity
13,QVQLVESWGGLVQAGGSLRLSCAASGYTFSAYAMGWYRQAPGKERELVAAISWSGASTSYADSVKGRFTISRDNAKNTVYLQMNSLKPEDTAVYYCAARRLHYQFKYYSWGQGTQVTVSS,high polyreactivity
14,QVQLVESWGGLVQAGGSLRLSCAASVSTFYNYAMGWYRQAHGKERELVAAISKSGGSTYYADSVKGRFTISRDNAKNTVYLQMNSLNPEDTAVYYCAARGVYRTRSGMGYWGQGTQVTVSS,high polyreactivity
15,QVQLVESWGGLVQAGGSLRLSCAAYGIIFKYYAMGWYRQAPGKERELVAVITSNGARTYYADSVKGRFTISRDNAKNTVYLQMNSLKPEDTAVYYCNAYRLSVSVGYDYCGQGTQVTVSS,high polyreactivity
16,QVQLVESWGGLVQAGGSLRLSCSASGRTLRGYAMGWYRQAPGKERELVAAISKGGGSTFYADSVKGRFTISRDNAKNTVYLLMISLKPEDTAVYYCAARARYTRRGRHYDYWGQGTQVTVSS,high polyreactivity
17,QVQLVESWGGLVQAGGSLRLSSAASGFTFVTYGMGWYRQAPGKERELVARISSSSTNYADSVKGRFTISRDNAKNTVYLQMKSLKPEDTAVYYCAAVHYRWWYRSAYDYWGQGTQVTVSS,low polyreactivity
18,QVQLVESWGGLVQAGGSLRLSSAASGSIFYHYAMGWYRQAPGKERELVAAISWRGASTYYADSVKGRFTISRDNAKNTVYLQMNSLKPEDTAVYYCARLSSSHPLYRDDYWGQGTQVTLSS,high polyreactivity
19,QVQLVESWGGLVQAGGSRRLSCDASGRTFVTNAMGWYRQARGKERELVAAISGTGGSTYYADSVKGRFTISRDNAKNTVFLHMNRLKPEDTAVYSWAADTYIYGLEYDYWGQGTQVTVSS,low polyreactivity
20,QVQLVESWVGLVQAGGSLSLSCDASGFTILGYAMGWYRQAPGKERELVASITYGGDSTYYADSVKGRFTISRDNAKNTVYLQINCLKPEDTAVYYCNARPSYWWGGRLYGYWGQGSQVTVSS,high polyreactivity
21,QVQLVETAGGLVHAGGSLRLSCADSGRIFERNAMGWNRQSPGKERELVARITSGGGTYYADSVKGRFTISRDNAKNTVYLQMNSLKPEDTAVYYCAVQYLYRKYRRYDYWGQGTQVTVSS,high polyreactivity
